The experiment has as its target CD19 (UniProt P15391). The experiment can be described thus: cell-based or functional assay.
Chain of UniProt P15391 (P15391 20-556 limits assumed): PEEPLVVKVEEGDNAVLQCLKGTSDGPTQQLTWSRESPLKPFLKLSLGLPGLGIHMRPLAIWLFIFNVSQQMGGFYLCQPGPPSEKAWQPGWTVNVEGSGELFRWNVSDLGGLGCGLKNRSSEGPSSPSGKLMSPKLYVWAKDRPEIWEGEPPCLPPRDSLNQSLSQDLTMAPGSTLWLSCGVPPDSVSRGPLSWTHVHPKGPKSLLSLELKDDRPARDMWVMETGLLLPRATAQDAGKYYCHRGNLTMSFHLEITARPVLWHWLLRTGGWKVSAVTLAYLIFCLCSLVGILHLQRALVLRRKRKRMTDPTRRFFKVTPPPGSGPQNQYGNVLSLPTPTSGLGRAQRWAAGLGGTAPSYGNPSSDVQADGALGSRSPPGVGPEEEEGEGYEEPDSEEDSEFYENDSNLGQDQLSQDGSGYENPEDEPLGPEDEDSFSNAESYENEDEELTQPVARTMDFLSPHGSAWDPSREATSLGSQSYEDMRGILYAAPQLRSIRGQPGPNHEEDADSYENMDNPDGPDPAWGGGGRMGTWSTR

Chain of FMC63-CD8BBZ CAR (Q07011 209-255): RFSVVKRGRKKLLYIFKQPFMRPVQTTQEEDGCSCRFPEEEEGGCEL

FMC63-CD8BBZ CAR gave an IFNγ ELISA, CAR T-cells cultured overnight with CD19-K562 cells of 44300 pg/mL IFNγ and an IFNγ ELISA, CAR T-cells cultured overnight with primary CLL cells (CD19-Positive Targets) of 13900 pg/mL IFNγ.

These data come from US20220153838A1.
